Measured values published in paper PMC13399123.

Columns and labels:
[1] = molecular target: GST-SH3 (SH3 domain of cortactin fused to GST) (UniProt Q14247); experiment: GST pull-down with recombinant proteins, anti-MBP immunoblot, quantified; conditions: 10% of the input MBP protein loaded; n = 2; parent: est. 1.0; read off a plot
[2] = molecular target: cortactin (CTTN), endogenous in MKN-74 cells (UniProt Q14247); experiment: GFP-trap pull-down from cell lysates, anti-cortactin immunoblot, quantified; conditions: MKN-74 HS1BP3 KO cells expressing EGFP-HS1BP3 WT or PRR3.1 mutant; n = 4; parent: est. 1.0; read off a plot
cortactin (CTTN), endogenous in MKN-74 cells, sequence (Q14247 whole entry, the tested form may be a part): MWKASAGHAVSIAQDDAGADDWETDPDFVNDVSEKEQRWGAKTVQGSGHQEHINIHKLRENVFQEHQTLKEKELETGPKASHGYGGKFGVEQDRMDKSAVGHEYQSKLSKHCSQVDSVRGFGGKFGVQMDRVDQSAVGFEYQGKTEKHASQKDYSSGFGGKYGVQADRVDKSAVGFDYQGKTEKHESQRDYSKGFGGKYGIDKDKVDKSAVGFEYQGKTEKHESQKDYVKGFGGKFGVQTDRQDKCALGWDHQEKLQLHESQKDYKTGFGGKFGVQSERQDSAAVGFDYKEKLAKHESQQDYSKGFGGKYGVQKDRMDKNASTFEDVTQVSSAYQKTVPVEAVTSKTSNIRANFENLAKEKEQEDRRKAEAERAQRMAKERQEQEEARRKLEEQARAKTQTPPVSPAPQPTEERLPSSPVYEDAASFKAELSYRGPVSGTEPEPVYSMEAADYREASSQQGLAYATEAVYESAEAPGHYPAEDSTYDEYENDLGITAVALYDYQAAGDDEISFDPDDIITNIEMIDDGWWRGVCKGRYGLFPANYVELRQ

[3] = molecular target: GST-SH3 (SH3 domain of cortactin fused to GST) (UniProt Q14247); experiment: GST pull-down from cell lysates, anti-HS1BP3 immunoblot, quantified; conditions: lysates of MKN-74 HS1BP3 KO cells rescued with EGFP-HS1BP3 WT or PRR3.1 mutant; n = 2; parent: est. 8.5; read off a plot; scale: % of GST-SH3 interaction

GST-SH3 (SH3 domain of cortactin fused to GST), sequence (Q14247 492-550): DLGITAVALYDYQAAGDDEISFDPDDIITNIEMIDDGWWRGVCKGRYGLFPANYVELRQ
EGFP-HS1BP3 WT, sequence (Q53T59 whole entry, change not shown): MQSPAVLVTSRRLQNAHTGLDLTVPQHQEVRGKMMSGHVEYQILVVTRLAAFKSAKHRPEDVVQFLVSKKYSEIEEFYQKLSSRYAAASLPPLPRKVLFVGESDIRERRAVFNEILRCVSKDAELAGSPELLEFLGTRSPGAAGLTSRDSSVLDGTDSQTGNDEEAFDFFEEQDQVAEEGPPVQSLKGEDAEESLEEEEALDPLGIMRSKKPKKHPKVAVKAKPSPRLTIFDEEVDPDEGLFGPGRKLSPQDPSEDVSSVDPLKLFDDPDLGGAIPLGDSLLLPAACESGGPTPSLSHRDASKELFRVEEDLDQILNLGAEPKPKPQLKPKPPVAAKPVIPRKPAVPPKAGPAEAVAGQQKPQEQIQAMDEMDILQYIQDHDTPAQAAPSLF
full-length MBP-HS1BP3 (from UniProt Q53T59) PRR3.1+3.2 mut (prolines of PRR3.1 and PRR3.2 replaced with alanine), sequence (Q53T59 whole entry, change not shown): as above
full-length MBP-HS1BP3 (from UniProt Q53T59) PRR3.1 mut (prolines of PRR3.1 replaced with alanine), sequence (Q53T59 whole entry, change not shown): as above
full-length MBP-HS1BP3 (from UniProt Q53T59) PRR3.2 mut (prolines of PRR3.2 replaced with alanine), sequence (Q53T59 whole entry, change not shown): as above

Row | ratio to parent [1] | ratio to parent [2] | response [3] | Substance
1 | 0.51 |  |  | full-length MBP-HS1BP3 (from UniProt Q53T59) PRR3.1+3.2 mut (prolines of PRR3.1 and PRR3.2 replaced with alanine)
2 | 0.07 |  |  | full-length MBP-HS1BP3 (from UniProt Q53T59) PRR3.1 mut (prolines of PRR3.1 replaced with alanine)
3 |  | 0.82 | 0.3 | EGFP-HS1BP3 WT (from UniProt Q53T59) PRR3.1 mut (prolines of PRR3.1 replaced with alanine)
4 | 0.31 |  |  | full-length MBP-HS1BP3 (from UniProt Q53T59) PRR3.2 mut (prolines of PRR3.2 replaced with alanine)
